Ends that are not written are not given here.
Columns and labels:
[1] = Sizes of complexes by quasi-elastic light scattering; type: physicochemical; conditions: complexes (-/+) [1:4], 6 µg DNA (pTG11033), 500 µl; for Sizes in ultrafiltrated serum: ultrafiltrated foetal calf serum
Procedure: Sizes of complexes prepared with a plasmid DNA (PTG11033; see EP-A 890 32, 9.6 kb) and the C1qA (4-26) peptide (see Table I) were evaluated. Complexes were formulated either in 5% glucose or in ultrafiltrated foetal calf serum (YM10 Amicon membrane). Formulation was made in 500 µl buffer, with 6 µg DNA and the quantity of peptide necessary to form a [1:4], [-:+] complex. As a control a polylysine SV40 NLS peptide was used. […] When oxidized, the dimerized C1qA peptide could form even smaller complexes, whatever the formulation buffer used. The reasonable sizes obtained in ultrafiltrated serum with C1qA peptides is an advantage for the use of this peptide rather than polylysine derivatives.
Complexes (-/+):[1:4], 6 µg DNA, 500 µl.
Size measures: quasi-elastic light scattering, COULTER N4+. [formula] [formula] [formula] [formula]

plasmid pTG11033 = assay: Gel retardation assay (agarose gel electrophoresis); type: binding
Procedure: Gel retardation assay was performed with C1qA (4-26) in several buffers: PBS, TBS, 5% glucose, or ultrafiltrated serum (YM10 Amicon membrane). DNA and peptides have been mixed at charge ratios [-/+] of [1:4], [1:1] and [1:0.2].

Row | Substance | Sizes in 5% glucose [1] | Sizes in ultrafiltrated serum [1] | retardation in DNA (plasmid pTG11033; charge ratio [-/+] [1:1]) | association of DNA to the peptides (plasmid pTG11033; charge ratio [-/+] [1:4], PBS, TBS, 5% glucose or ultrafiltrated serum, absence of visible band with ethidium bromide)
1 | SP-1052 oxidized: When oxidized, the dimerized C1qA peptide (CRAPDGKKGEAGRPGRRGRPGLK; also: oxidized disulfide dimer; UniProt P02745 26-48, looked up, fragment) | 200 nm | 300 nm |  | 
2 | SP-1052: C1qA (4-26) peptide, complexed with plasmid DNA (CRAPDGKKGEAGRPGRRGRPGLK; also: complexed with plasmid DNA; UniProt P02745 26-48, looked up, fragment) | 1µm | 300-500 nm | significative retardation | strong association of DNA to the peptides
